US20090068744A1, “VITREOUS CELL LINE” (SENJU PHARMACEUTICAL CO., LTD., priority 2006, published 2009)

Tests used:
[1] = test system: VEGF mRNA expression by a vitreous cell line; assay: VEGF mRNA expression by RT-PCR after cytokine stimulation of the vitreous cell line; type: cell-based, swine; details: for VEGF mRNA expression level: cytokine 10 ng/ml, up to 48 hours, FIG. 7, FIG. 9; for VEGF mRNA level as compared to the mRNA level of non-stimulation control: RT-PCR
Method: (§1) Changes of VEGF expression due to cytokine stimulation in the vitreous cell line established in Example 1 were examined. The expression of VEGF at an mRNA level was examined by RT-PCR, and the expression at a protein level was examined by ELISA.
To be specific, when the vitreous cell line reached 50-60% confluent, the medium for the cells was exchanged with DMEM containing 1% bovine serum. […] Total RNA was extracted from the stimulated cells, cDNA was synthesized, and PCR was conducted using VEGF primers. The medium of the stimulated cells was used for ELISA. Since an appropriate antibody to swine VEGF is not available, VEGF protein concentration was measured by ELISA using an antibody to human VEGF, and the result was calculated as a reference value led from a human VEGF standard product. PCR was conducted using TOYOBO KOD plus kit and Gene PCR System 9700 (Applied Biosystem). The conditions of PCR were as follows:
(§2) 95° C. 120 seconds; (95° C. 15 seconds, 62° C. 30 seconds, 68° C. 30 seconds)×30 cycles; 68° C. 90 seconds. ELISA was entrusted to Mitsubishi BCL.

[2] = test system: VEGF protein expression by a vitreous cell line; assay: VEGF protein in culture supernatant by ELISA after cytokine stimulation; type: cell-based, swine; details: cytokine 10 ng/ml; ELISA with antibody to human VEGF, relative values; FIG. 8
Method: as §1
To be specific, when the vitreous cell line reached 50-60% confluent, the medium for the cells was exchanged with DMEM containing 1% bovine serum. After culturing for 24 hours, the cells were stimulated with cytokine (IL-1α, IL-1β, TNFα, PDGF-AA, PDGF-BB or TGFβ) (10 ng/ml) for 48 hours (FIG. 6). Total RNA was extracted from the stimulated cells, cDNA was synthesized, and PCR was conducted using VEGF primers. The medium of the stimulated cells was used for ELISA. Since an appropriate antibody to swine VEGF is not available, VEGF protein concentration was measured by ELISA using an antibody to human VEGF, and the result was calculated as a reference value led from a human VEGF standard product. PCR was conducted using TOYOBO KOD plus kit and Gene PCR System 9700 (Applied Biosystem). The conditions of PCR were as follows:
as §2

B1: PDGF-BB: cytokine used to stimulate the vitreous cell line (10 ng/ml) (protein, UniProt P01127 82-190, looked up)
Platelet-derived growth …: SLGSLTIAEPAMIAECKTRTEVFEISRRLIDRTNANFLVWPPCVEVQRCSGCCNNRNVQCRPTQVQLRPVQVRKIEIVRKKPIFKKATVTLEDHLACKCETVAAARPVT
**Q.** Which “VEGF mRNA expression level” value [1] does the source give for B1 here?
**A.** a significant change in the VEGF mRNA expression level was not observed

B2: IL-1α: cytokine used to stimulate the vitreous cell line (10 ng/ml) (protein, UniProt P01583 113-271, looked up)
Interleukin-1 alpha: SAPFSFLSNVKYNFMRIIKYEFILNDALNQSIIRANDQYLTAAALHNLDEAVKFDMGAYKSSKDDAKITVILRISKTQLYVTAQDEDQPVLLKEMPEIPKTITGSETNLLFFWETHGTKNYFTSVAHPNLFIATKQDYWVCLAGGPPSITDFQILENQA
**Q.** B2 was tested. Which “VEGF mRNA expression level” value [1] did it give?
**A.** increased with time

**Q.** And the “VEGF mRNA level as compared to the mRNA level of non-stimulation control” value ([1]; in 12 hours)?
**A.** ≥ 2 fold

**Q.** And the “VEGF mRNA level as compared to the mRNA level of non-stimulation control” value ([1]; in 48 hours)?
**A.** ≥ 2.5 fold

**Q.** What about the “concentration of VEGF protein in the culture supernatant” value [2] of the same molecule?
**A.** increased with time
